Reference: paper PMC4966588

Biological target: gp41 of HIV-1 NL4.3 viral particles (HIV-1 NL4.3)

With “alpha-1-antitrypsin (from UniProt P01009 25-418) (natural protein)” the cytosolic viral p24 (ELISA) in primary CD4+ T cells pretreated with AAT and infected with HIV-1 NL4.3 Gag-iGFP was greater than 60 % decrease and the entry of HIV-1 NL4.3 Gag-iGFP into primary CD4+ T cells pretreated with AAT (0.5 g/L), GFP by flow cytometry, against untreated cells was greater than 60 % decrease.

In the case of KGTEAAGAMFLEAIPMSIPPEVKFNKPFVFLMIDQNTKSP [synthesized C-terminus fragment of AAT], the cytosolic viral p24 (ELISA) in primary CD4+ T cells pretreated with C and infected with HIV-1 NL4.3 Gag-iGFP, against cells pretreated with AAT is reported as greater than 50 % decrease and the entry of HIV-1 NL4.3 Gag-iGFP into primary CD4+ T cells pretreated with C (0.05 g/L), GFP by flow cytometry, against cells pretreated with AAT is reported as greater than 50 % decrease.
